This note sets out measurements from article PMC4456216.

Holding throughout (assay): ITC
The target in assay [1] is BMAL1 TAD S605N L606Y (mouse).
Assay [2] has as its target BMAL1 transactivation domain (TAD), residues 579-626 (mouse).
In assay [3] the target is BMAL1 TAD V602A I603F (mouse).

By stoichiometry N is commonly meant a count of units in the complex or per binding partner.

Chain of mouse CBP KIX domain (P45481 586-665): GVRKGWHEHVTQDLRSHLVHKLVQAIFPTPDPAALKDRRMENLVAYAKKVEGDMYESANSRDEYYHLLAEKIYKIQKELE

For “mouse CBP KIX domain (from UniProt P45481 586-665) (domain or fragment)”, the stoichiometry N in assay [1] was determined as 1.06; in assay [2], 0.74; in assay [3], 0.82.
